Test results: patent US20230381229A1 (ALPINE IMMUNE SCIENCES, INC., published 2023)
Changes are numbered by the printed parent chain. Numbers in names are those of the source.

T1: TIGIT (human)
T1 chain: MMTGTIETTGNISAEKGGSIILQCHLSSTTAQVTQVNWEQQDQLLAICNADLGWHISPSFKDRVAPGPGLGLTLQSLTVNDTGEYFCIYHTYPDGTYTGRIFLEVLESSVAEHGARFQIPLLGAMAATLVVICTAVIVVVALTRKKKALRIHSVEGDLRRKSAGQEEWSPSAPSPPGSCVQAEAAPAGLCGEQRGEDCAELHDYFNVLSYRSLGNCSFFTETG

B1: variant CD155 IgV-Fc P18S, A47G, L79P, F91S, L104M, T107A, R113W (Fc fusion)
chain: WPPPGTGDVVVQAPTQVSGFLGDSVTLPCYLQVPNMEVTHVSQLTWGRHGESGSMAVFHQTQGPSYSESKRLEFVAARPGAELRNASLRMSGLRVEDEGNYTCMFVAFPQGSWSVDIWLRVLGSGGGGSEPKSSDKTHTCPPCPAPEAEGAPSVFLFPPKPKDTLMISRTPEVTCVVVDVSHEDPEVKFNWYVDGVEVHNAKTKPREEQYNSTYRVVSVLTVLHQDWLNGKEYKCKVSNKALPAPIEKTISKAKGQPREPQVYTLPPSRDELTKNQVSLTCLVKGFYPSDIAVEWESNGQPENNYKTTPPVLDSDGSFFLYSKLTVDKSRWQQGNVFSCSVMHEALHNHYTQKSLSLSPGK
B2: variant CD155 IgV-Fc P18S, S52P, S65A, S67V, L79P, F91S, L104M, T107S, R113W (Fc fusion)
chain: B1 chain with G47A, S52P, S65A, S67V, A107S
B3: variant CD155 IgV-Fc D8G, P18S, M36I, V38A, H49Q, A76E, F91S, L104M, T107A, R113W (Fc fusion)
chain: B1 chain with D8G, M36I, V38A, G47A, H49Q, A76E, P79L
B4: variant CD155 IgV-Fc V11A, P18S, L79P, F91S, L104M, G111R (Fc fusion)
chain: B1 chain with V11A, G47A, A107T, G111R, W113R
B5: variant CD155 IgV-Fc V11A, P18T, N35S, L79P, S87T, F91S (Fc fusion)
chain: B1 chain with V11A, S18T, N35S, G47A, S87T, M104L, A107T, W113R
B6: variant CD155 IgV-Fc P18T, M36T, L79P, F91S, G111R (Fc fusion)
chain: B1 chain with S18T, M36T, G47A, M104L, A107T, G111R, W113R
B7: variant CD155 IgV-Fc V9L, P18Y, V25A, V38G, M55V, A77T, L79P, M90I, F91S, L104M (Fc fusion)
chain: B1 chain with V9L, S18Y, V25A, V38G, G47A, M55V, A77T, M90I, A107T, W113R
B8: variant CD155 IgV-Fc V9I, P18T, H49R, L79P, N85D, F91S, L104T, T107M (Fc fusion)
chain: B1 chain with V9I, S18T, G47A, H49R, N85D, M104T, A107M, W113R
B9: variant CD155 IgV-Fc P18F, T26M, L44V, Q62K, L79P, E82D, F91S, L104M, G111D (Fc fusion)
chain: B1 chain with S18F, T26M, L44V, G47A, Q62K, E82D, A107T, G111D, W113R
B10: variant CD155 IgV-Fc P18T, S52P, S65A, S67V, L79P, F91S, L104M, G111R (Fc fusion)
chain: B1 chain with S18T, G47A, S52P, S65A, S67V, A107T, G111R, W113R
B11: variant CD155 IgV-Fc V9L, P18S, Q60R, V75L, L79P, R89K, F91S, L104E, G111R (Fc fusion)
chain: B1 chain with V9L, G47A, Q60R, V75L, R89K, M104E, A107T, G111R, W113R
B12: variant CD155 IgV-Fc P18T, D23G, S24A, N35D, H49L, L79P, F91S, L104M, G111R (Fc fusion)
chain: B1 chain with S18T, D23G, S24A, N35D, G47A, H49L, A107T, G111R, W113R
B13: variant CD155 IgV-Fc V11A, P18S, S54R, Q60P, Q62K, L79P, N85D, F91S, T107M (Fc fusion)
chain: B1 chain with V11A, G47A, S54R, Q60P, Q62K, N85D, M104L, A107M, W113R
B14: variant CD155 IgV-Fc T15I, P18T, L79P, F91S, L104M, G111R (Fc fusion)
chain: B1 chain with T15I, S18T, G47A, A107T, G111R, W113R
B15: variant CD155 IgV-Fc P18S, V41A, H49R, S54C, L79S, N85Y, L88P, F91S, L104M, T107M (Fc fusion)
chain: B1 chain with V41A, G47A, H49R, S54C, P79S, N85Y, L88P, A107M, W113R
B16: variant CD155 IgV-Fc V9A, P18F, T61S, Q62L, L79P, F91S, G111R (Fc fusion)
chain: B1 chain with V9A, S18F, G47A, T61S, Q62L, M104L, A107T, G111R, W113R
B17: variant CD155 IgV-Fc V11E, P18H, F20Y, V25E, N35S, H49R, L79P, F91S, T107M, G111R (Fc fusion)
chain: WPPPGTGDVVEQAPTQVHGYLGDSETLPCYLQVPSMEVTHVSQLTWARRGESGSMAVFHQTQGPSYSESKRLEFVAARPGAELRNASLRMSGLRVEDEGNYTCLFVMFPQRSRSVDIWLRVLGSGGGGSEPKSSDKTHTCPPCPAPEAEGAPSVFLFPPKPKDTLMISRTPEVTCVVVDVSHEDPEVKFNWYVDGVEVHNAKTKPREEQYNSTYRVVSVLTVLHQDWLNGKEYKCKVSNKALPAPIEKTISKAKGQPREPQVYTLPPSRDELTKNQVSLTCLVKGFYPSDIAVEWESNGQPENNYKTTPPVLDSDGSFFLYSKLTVDKSRWQQGNVFSCSVMHEALHNHYTQKSLSLSPGK
B18: variant CD155 IgV-Fc P18T, S52A, V57A, Q60R, Q62K, S65C, L79P, F91T, N100Y, T107M (Fc fusion)
chain: WPPPGTGDVVVQAPTQVTGFLGDSVTLPCYLQVPNMEVTHVSQLTWARHGEAGSMAAFHRTKGPCYSESKRLEFVAARPGAELRNASLRMTGLRVEDEGYYTCLFVMFPQGSRSVDIWLRVLGSGGGGSEPKSSDKTHTCPPCPAPEAEGAPSVFLFPPKPKDTLMISRTPEVTCVVVDVSHEDPEVKFNWYVDGVEVHNAKTKPREEQYNSTYRVVSVLTVLHQDWLNGKEYKCKVSNKALPAPIEKTISKAKGQPREPQVYTLPPSRDELTKNQVSLTCLVKGFYPSDIAVEWESNGQPENNYKTTPPVLDSDGSFFLYSKLTVDKSRWQQGNVFSCSVMHEALHNHYTQKSLSLSPGK

Columns and labels:
TIGIT [1] = target: T1, TIGIT; experiment: cell-based or functional assay
TIGIT [2] = target: T1, TIGIT; experiment: cell-based or functional assay

Row | Binder | IL-2 luciferase reporter, Normalized Fold Change from CD155-ECD, proteins at 50 nM (TIGIT [1]) [fold] | IL-2 luciferase reporter, Normalized Fold Change from CD155-ECD (TIGIT [2]) [fold]
1 | B1 | 5 | –
2 | B2 | -0.1 | –
3 | B3 | 4 | –
4 | B4 | 0.4 | –
5 | B5 | – | 2.1
6 | B6 | 4.1 | –
7 | B7 | – | 1.2
8 | B8 | – | 4
9 | B9 | 4 | –
10 | B10 | 3.6 | –
11 | B11 | 1.8 | –
12 | B12 | 3.2 | –
13 | B13 | 2.6 | –
14 | B14 | 0.4 | –
15 | B15 | – | -1
16 | B16 | – | 1.3
17 | B17 | – | -0.6
18 | B18 | – | 2.1
